Data: the nanobody polyreactivity screen of Harvey et al. (2022)

Test: yeast display, Sf9 membrane polyspecificity reagent, FACS + sequencing; frameworks hold sequencing errors
Procedure, shortened: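 After 36–48 hours of galactose induction, yeast (Saccharomyces cerevisiae BJ5465) displaying a synthetic nanobody library were stained at 4 °C for 1 hour with 10% biotinylated, detergent-solubilized Sf9 membrane reagent. Streptavidin microbeads enriched the stained cells before FACS sorting into low and high (top ~1%) gates on anti-HA and streptavidin fluorescence. Each clone's polyreactivity label reflects its gate of origin.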

| Sequence | polyreactivity (PSR sort gate) |
| --- | --- |
| QVQLVESGGGLVQAGGSLRLSCAASGSTFADYVMGWYRQAPGKERELVAAISRSGGSTYYADSEKGRFTISRDTAKNTVYLQTNSLKPEDTAVYYCAAVKARRYDYWGQGTQVTVSS | high polyreactivity |
| QVQLVESGGGLVQAGGSLRLSCAASGRIFVANAMGWYRQAPGKERELVAVISGSGGRTYYADSVKGRFTISRDNAKNTVYLQMNSLKPEDTAVYYCAAQKWQQGITAYEYWGQGTQVTVSS | high polyreactivity |
| QVQLVESGGGLVQAGGSLRLSCAASGRIFRYYAMGWYRQAPGKERELVATISRSGGSTFYADSVKGRFTISRDNAKNTVYLQMNSLKPEDTAVYYCNARYQTGGYGYWGQGTQVTVSS | high polyreactivity |
| QVQLVESGGGLVQAGGSLRLSCAASGRTLYKYAMGWYRQAPGKERELVAAISRNGGSTYYADSVKGRFTISRDNAKNTVYLQMNSLKPEDTAVYYCNALSRYRIWSYGYWGQGTQVTVSS | high polyreactivity |
| QVQLVESGGGLVQAGGSLRLSCAASGFTFGSYAMGWSRQAPGKERELVAVITRSGRTNYADSVKGRFTISRDNAKNTVYLQMNSLKPEDTAVYYCNADDVDDEVSPDLTEMDYWGQGTQVTVSS | low polyreactivity |
| QVQLVESGGGLVQAGGSLRLSCAASGRIFYSYAMGWYRQAPGKERELVAVITYRGGRTYYADSVKGRFTISRDNAKNTVYLQMNSLKPEDTAVYYCARDPQFYLHTVTDGAYNYWGQGTQVTVSS | low polyreactivity |
| QVQLVESGGGLVQAGGSLRLSCAASGRISESNDMGWSRQAPWKERELVAAISSSGGSTYYADSVKGRFTISRDNAKNTVYLQMNSLKPEDTAVYYCNAVYYRTVLKIGVYEYDYWGQGTQVTVSS | low polyreactivity |
| QVQLVESGGGLVQAGGSLRLSRAASGRTFYGYAMGWYRQAPGKESELVARIRSGGSTNYADSVKGRFTISRDNAKNTFYLQMNSLIPEDTAVYYCAARPGAAGYKYYYWGQGTQVTVSS | high polyreactivity |
| QVQLVESGGGLVQAGGTLRLSCAPSGRTFKRYAMGWYRQAPGKERELVAAISSGGSTYADSVKGRFTISRDNAKNTVYLHMNSLKTEDTAVYYCAARYRSYPERYNYWGQGTQGTVSS | high polyreactivity |
| QVQLVESGGGLVQAGGSLRLSCAASGSTFSWYVMGWYRQAPGKERELVAAITRGGGSTYYADSVKGRFTISRDNAKNTVYLQMNSLKPEDAAVYYCNADPGFRSGDYGYSSFDYWGQGTQVTVSS | low polyreactivity |
| QVQLVESGGGLVQAGGSLRLSCAASGLTFEHNAMGWYRQAPGKETEFVAVISWRGTSTYYADSVKGRFTISRDNAKNTVYLQMNSLKPEDTAVYYCATRYYGDDGYRYDHWGQGTQVTVSS | high polyreactivity |
| QVQLVESGGGLDQAGGSLRLSCAASGRIFRFYAMGWYRQATGKERELVAAISSRGGSTYYADSVKGRFTISRDNAKNTFYLQMNSLKPEDTAVYYCAKKTWRDYSYNYWGQGTQVTVSS | high polyreactivity |
| QVQLVESGGGLVQAGGSLRLSCAASGITFPDYAMGWYRQAPGKERELVASISDSGGNTYYADSVKGRFTISRDNAKNTVYLQMNSLKPEDTAVYYCAVDSWYYYIVLYDYWGQGTQVTVSS | high polyreactivity |
| QVHLVESGGGLVQAGGSLRLSCAASGSTFALYGMGWYRQAPGKERELVAASTWSGTGTYYADSVKGRFTISRDNAKNTVYLQMNSLKPEDTAVYYCAADGYTTYYSEFYYWGQATQVTVSS | low polyreactivity |
| QVQLVESGGGLVQAGGSLRLICAASGRIFGTNAKGWYRQAPGKERELVADITSGGSTNYADSVKGRFTISRDNAKNTVYLQMNSLKPEDTAVYYCAADVIGDLRWYRDEYWGQGTQVTVSS | low polyreactivity |
| QVQLVESGGGLVQAGGSLSLSCAASGRTFYRNAMGWYRQAPGKERELVAAISSDDSTNYADSVKGRFTISRDNAKNTVYLQMNSLKPEDTAVYYCNADYYYGYEYDYWGQGTQVTVSS | low polyreactivity |
| QVQLVEAGGGLVQAGVSLRLSCAASGSIFGYNAMGWYRQAPGKERELVAAISRRGTRTYYADSVKGRFTISRDTAKNTVYLQMNSLKPEDTAVYYCNASPSLDYDYWGQGTQVTVSS | high polyreactivity |
| QVQIVESCGGLFQAAGRLRLICADSRSIFSYNAMGWYRQAPGKERELVAAITSGGRTYYADSVKGRFTISRDNAKNTVYLQMNSLKPEDTGVYYCAAYQTGLHGFYSWGQGTQVTVSS | high polyreactivity |
| QVQLVESGGGLVQAGGSLRLSCAASGRTFATYAMGWYRQEPGKERELVAAISTSGGSTYYADSVKGRFTISRDNAKNTVYLQMNSLKPEDTAVYYCAAVLSWRGYTCPVYAFDYWGQGTQVTVSS | high polyreactivity |
| QVQLVESGGGLVQAGGSLRLSCAASGRIFQTYAMGWYRQAPGKERELVAAISSRGRTYYADSVKGRFTISRDNAKNTVYLQMNSLKPGDTAVYYCAARDWSHRPRGYDYWGQGTKVTVSS | high polyreactivity |
| QVQLVESGGGLVQAGGSLRLSCAASGSIFVYYAMGWYRQAPGKERELVAAITRRGGSTYYADSVKGRFTISRDNAKNTVYLQMNSLKPEDTAVYYCNSYTSRQYGLEYWGQGTQVSVSS | high polyreactivity |
| QVQLVESGGRLVQAGGSLRLSCAASGLTFSSYAMGWYRQAPGKERQLVAAISRGGGSTYYADSVKGRFTISRDNAKNTGYLQMNSLKPEDTAVYYCAADSGFWWLYDYWGQGTHVTVSS | high polyreactivity |

| Sequence | polyreactivity (PSR sort gate) |
| --- | --- |
| QVQLVESGGGLVQAGGSLRLSCAASGRTLGYYAMGWYRQAPGTERELVAAISGSGGITYYADSVKGRFTISRDNAKNTVYLQMNSLKPEDTAVYFCNVDPTAKWFNYDSWGQGTQVTVSS | low polyreactivity |
| QVQLVESWGGLVQAGGSLRISCAASGNIFRYAMGWYRQAPGKERELVAAITYRGSTTYYADSVKGRFTISCDNAKNTVYLQMISLKPEDTAVYYCAARASYTRRHVGRPYDYWGQGTQVSVSS | high polyreactivity |
| QVQLVESGGGLVQAGGSLRLSCAASGFTFQENAMGWYRQATGKERELVAAISKSGGITYYADSVKGRFTISRENAKNNVYLQMNSLKPEDTAVYYCNIGNAYVVYTSGYDYWGQGTQVTVSS | low polyreactivity |
| QVQLVESGGGLVQAGGSLRLSCAASGRTFNRYAMGWYRQAPGKERELVAAINSVGSTYYADSVKGRFPISRDNAKNTVYLQMNSLKPEDTAVYYCNAVQGSRFGYWGQGTQVTVSS | high polyreactivity |
| QVQLVESGGGLVQAGGSLRLSCAASGRIFEVYAMGWYRQAPGKERELVAAITSSGGSRTYYADSVKGRFTISRDNAKNTVYLQMNSLKPEDTAVYYCNDYGGRWIGGRRAYRYNYWGQGTQVNVSS | high polyreactivity |
| QVQLVESGGGLVQAGGSLRLSCAASGITFYGYDMGWYRQAPAKERELVAAITSDGITNYADSVKGRFTISRDNAKNTVYLQMNSLKPEDTAVYYCNAVFRPGSFLYDWRAYDYWGQGTQVTVSS | low polyreactivity |
| QVQLVESGGGLVQAGGSLRISCAASGSIFYVYAMGWYRQAPGKERELVATISTGGSTYYADSVKGRFTISRDNAKNTVYLQMNSLKPEDTAVYYCNAQFTPRYWGGYDSWGQGTQVTVSS | low polyreactivity |
| QVQLVESGGGLVQAGGSLRLTCAASGRIIKLYAMGWYRQAPGKETEFVAAITWSGGRTYYADSVKGRFTISRDNAKNTVYLQMNSLTPEDTAVYSCAAYDTYDWYDYWGQGTQVTVSS | high polyreactivity |
| QGQLVESGGGLVQAGGSLRLTCAASGSTFRWNVMGWYRQAPGKERELVAAISSTGDNTYYADSVKGRFTISRDNAKNTGYLQMNSLKPEDTAVYYCAAGRGARDRARKHGYWGQGTQVTVSS | high polyreactivity |
| QVQHVESGGGIVQAGGSLRLSCAASGSIFVRYAMGWYRQAPGKERESVAAISASGSSTYYADSVKGRFTISRDNAKNTVYLQMNSLKPEDTADYYCNAVRARRFDYWGQGTQVTVSS | high polyreactivity |
| QVQLVESGGGLVQAGGSLPLSCASSGFTLVTYAMGWYRQAPGKERELVAAISSSGTSTYYADSVKARFTISRDNAKNTVYLQMNSLKPEDTAVYYCAVDDTHPFGPDGGGDYWGQGTQVTVSS | low polyreactivity |
| PVQLVESGGGLVQAGGSLRLSCAASGTIFFSNAMGWYRQAPGKEREFVATITSSGVGTYYADSVKGRFTISRDNAKNTVYLQMNSLTPEDTAVYYCAADLTISYSQEYYYWGQGTQVTVSS | low polyreactivity |
| QVQLVESGGGLVQAGGSLRISCAASGSILFGNAMGWYRQAPGKERELVAAITVSGGSTYYADSVKGRFTISRDNAKNTVYLQMNSLKPEDTAVYYCAAVSLFRDSQFDYWGQGTQVTVSS | low polyreactivity |
| QVQLVESGGGLVQAGGSLRLSCAASGRISLYAMGWYRQAPGKEREMVAAINGRGGNTYYADSVKGRFTISRDNAKNTVYLQMNSLKPEDTAVYYCNAVTVNGPYGYDYWGQGTQVTVSS | high polyreactivity |
| QVQLVESGAGIVQAGGSLRLSCAASGSILWHNAMGWYRQAPGKEREYVDAISARGTRTYYADSVKGRFTISRDNAKNTVYLQLKSLNPEDTAVYYCAARYWDDRARAEDYWGQVTQVTVSS | high polyreactivity |
| QVQLVESGGGLVQAGGSLRLSCAASGSIYLWKAMGWYRQAPGKERELVAAIDSGGSTYAESVKGRFTISRDNAKNTVYLQMNSLKPEDTAVYYCAAEIPDEWPYDYWGQGTQVTVSS | low polyreactivity |
| QVQLVESGGGLVQAGGSLRISCAASGRTFPGNAMGCYRQAPGKERELVAAISYSGGRTYYADSVKGRFTISRDNAKNTVYLQMNSLNPEDTAVYYCNRTPYSDYVFAYDYWGQGTQVTVSS | high polyreactivity |
| QVQLVESGGGLVQAGGSLRLSCAASGITFLDYTMGWYRQAPGKERELVATISKSGGSTYYADSVKGRFTISRDNAKNTVYLQMNSLKPEDTAVYYFAARGFSFWRYYYWGQGTQVTVSS | high polyreactivity |
| QVQLVESGGGLVQAGGSLRLSCAASGRTFGYYAMGWYRQAPGKERELVAAISSRGGSTSYADSVKGRFTISRDNAKNTVYLQMNSLKPEDTAVYYCAVGRPRPKYEYDYWGQGTQVTVSS | high polyreactivity |
| QVQLVESGGGVVQAGGSLRLSCASSGRTFSRYTMGWYRQAPGKERELVAVITASGTSTYYADSVKGRFTISRDNAKYTVYLQMISQKPEDTAVYYCAAYYPTYYRYSSLTMNYWGQGTQVTVSS | high polyreactivity |
| QVQLVESGGGLVQAGGSLRLSCAASGSTFGGNGMGWYRQAPGKKGSWVAAISWSGGSTYYADSVKGRFTISRDNAKNTVYLQMNSLKPEDTAVYYCAARTVYRGRAYDYWGQGTQVTVSS | high polyreactivity |
